Where a chain is given by its changes, count along the chain named.
B1: ZDY28 human monoclonal antibody, IgG1 (antibody, V domains shown)
VH: EVQLVQSGGGVVQPGRSLRLSCAASGFTFSSYGMHWVRQAPGKGLEWVAVISYDGSNKYYADSVKGRFTISRDNSKNTLYLQMNSLRAEDTAVYYCASRSTVVPAAIFAFDIWGQGTMVTVSS
VL: not shown
B2: ZDY49 human monoclonal antibody, IgG1 (antibody, V domains shown)
VH: B1 VH with Q6E
VL: not shown
B3: ZDY95 human monoclonal antibody, IgG1 (antibody, V domains shown)
VH: B1 VH
VL: not shown
B4: ZDY20 human monoclonal antibody, IgG1 (antibody, V domains shown)
VH: EVQLVETGGGLIQPGGSLRLSCAASGITVSSNYMSWVRQAPGKGLEWVSVIYSGGSTYYADSVKGRFTISRDNSKNTLYLQMNSLRAEDTAVYYCAREGLGDGYNAIAGLGFDLWGRGTLVTVSS
VL: DIVMTQSPSSLSASVGDSVTITCQASQDINNYLNWYQQKPGRAPELLINDASNLEAGVPSRFSGSGSGTDFTLTISSLQTEDFATYYCQQYGSLPYTFGQGTKLDIR

Tests used:
[1] = target: T1, SARS-CoV-2 spike trimer protein (SARS-CoV-2, Wuhan-Hu-1 reference, UniProt P0DTC2); test: cell-based or functional assay
[2] = target: T1, SARS-CoV-2 spike trimer protein; test: SPR

Row | Binder | pseudovirus neutralisation in 293T-ACE2 cells, IC90; blocks S binding to ACE2 [1] [µg/mL] | Kd [2] [nM] | neutralisation of live SARS-CoV-2, IC50; blocks S binding to ACE2 [1] [µg/mL]
1 | B1 | 7.47 | 10.2 | –
2 | B2 | 17.1 | 24.4 | –
3 | B3 | 13.3 | 15 | –
4 | B4 | 1.24 | 8.8 | 0.35
